This test concerns the target HRgpA-6H (Porphyromonas gingivalis) (UniProt P28784). Briefly: ELISA, coated HRgpA-6H.

Several values for one entry are separate records, joined by “and”; a condition that tells them apart may be missing. Equal entries are not always repeated.

Sequence of UniProt P28784 (P28784 228-860 limits assumed): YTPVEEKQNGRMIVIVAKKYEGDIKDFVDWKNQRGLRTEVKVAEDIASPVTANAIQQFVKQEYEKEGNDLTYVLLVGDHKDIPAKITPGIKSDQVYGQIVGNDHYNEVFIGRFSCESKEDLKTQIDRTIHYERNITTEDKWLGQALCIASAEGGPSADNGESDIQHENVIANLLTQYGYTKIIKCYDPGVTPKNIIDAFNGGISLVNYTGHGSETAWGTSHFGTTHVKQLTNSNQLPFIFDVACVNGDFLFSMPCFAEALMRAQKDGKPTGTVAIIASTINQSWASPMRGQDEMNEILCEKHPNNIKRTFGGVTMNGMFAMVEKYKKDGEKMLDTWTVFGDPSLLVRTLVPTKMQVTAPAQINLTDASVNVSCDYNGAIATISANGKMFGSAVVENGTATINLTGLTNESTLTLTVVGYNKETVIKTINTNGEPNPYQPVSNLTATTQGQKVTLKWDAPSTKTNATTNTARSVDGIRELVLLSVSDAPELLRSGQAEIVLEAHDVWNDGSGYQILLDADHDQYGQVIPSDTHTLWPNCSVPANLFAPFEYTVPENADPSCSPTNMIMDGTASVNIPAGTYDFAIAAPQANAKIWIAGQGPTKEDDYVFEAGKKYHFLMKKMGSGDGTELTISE

B1: KB001 mouse Fab VL L55S (Fab, V domains shown)
VH: EVQLKQSGPGLVAPSQSLSITCTVSGFSLSIYSVHWVRQPPGKGLEWLGMIWGGGSSDYNSALKSRLSISKDNSKSQVFLKMNSLQTDDTAMYYCARNGNFYAMDYWGQGTSVTVSS
VL: QIVLTQSPAIMSASLGERVTMTCTASSSVSSSFLHWYQQKPGSSPQLWIYSTSNSASGVPARFSGSGSGTSYSLTISSMEAEDAATYYCHQYHHSPYIYTFGGGTKLEIK
B1: the OD450 nm stood at 0.672 and the Ratio OD(Variant)/OD(WT) is 0.858.

B2: KB001 mouse Fab VH S61Q (Fab, V domains shown)
VH: EVQLKQSGPGLVAPSQSLSITCTVSGFSLSIYSVHWVRQPPGKGLEWLGMIWGGGSSDYNQALKSRLSISKDNSKSQVFLKMNSLQTDDTAMYYCARNGNFYAMDYWGQGTSVTVSS
VL: QIVLTQSPAIMSASLGERVTMTCTASSSVSSSFLHWYQQKPGSSPQLWIYSTSNLASGVPARFSGSGSGTSYSLTISSMEAEDAATYYCHQYHHSPYIYTFGGGTKLEIK
On to B2, for which the OD450 nm was 0.634 and the Ratio OD(Variant)/OD(WT) was 1.28.

B3: KB001 mouse Fab VL L55H (Fab, V domains shown)
VH: EVQLKQSGPGLVAPSQSLSITCTVSGFSLSIYSVHWVRQPPGKGLEWLGMIWGGGSSDYNSALKSRLSISKDNSKSQVFLKMNSLQTDDTAMYYCARNGNFYAMDYWGQGTSVTVSS
VL: QIVLTQSPAIMSASLGERVTMTCTASSSVSSSFLHWYQQKPGSSPQLWIYSTSNHASGVPARFSGSGSGTSYSLTISSMEAEDAATYYCHQYHHSPYIYTFGGGTKLEIK
Consider B3, for which the OD450 nm is 0.695 and 0.731; the Ratio OD(Variant)/OD(WT) was 0.887 and 0.933.

B4: KB001 mouse Fab VH S61D (Fab, V domains shown)
VH: EVQLKQSGPGLVAPSQSLSITCTVSGFSLSIYSVHWVRQPPGKGLEWLGMIWGGGSSDYNDALKSRLSISKDNSKSQVFLKMNSLQTDDTAMYYCARNGNFYAMDYWGQGTSVTVSS
VL: QIVLTQSPAIMSASLGERVTMTCTASSSVSSSFLHWYQQKPGSSPQLWIYSTSNLASGVPARFSGSGSGTSYSLTISSMEAEDAATYYCHQYHHSPYIYTFGGGTKLEIK
Take B4: the Ratio OD(Variant)/OD(WT) is 1.14 and 1.11 (2×) and 0.956.

B5: KB001 mouse Fab VH S30E (Fab, V domains shown)
VH: EVQLKQSGPGLVAPSQSLSITCTVSGFSLEIYSVHWVRQPPGKGLEWLGMIWGGGSSDYNSALKSRLSISKDNSKSQVFLKMNSLQTDDTAMYYCARNGNFYAMDYWGQGTSVTVSS
VL: QIVLTQSPAIMSASLGERVTMTCTASSSVSSSFLHWYQQKPGSSPQLWIYSTSNLASGVPARFSGSGSGTSYSLTISSMEAEDAATYYCHQYHHSPYIYTFGGGTKLEIK
With B5, the OD450 nm was 0.567 and the Ratio OD(Variant)/OD(WT) stood at 1.12.

B6: KB001 mouse Fab VH I31V (Fab, V domains shown)
VH: EVQLKQSGPGLVAPSQSLSITCTVSGFSLSVYSVHWVRQPPGKGLEWLGMIWGGGSSDYNSALKSRLSISKDNSKSQVFLKMNSLQTDDTAMYYCARNGNFYAMDYWGQGTSVTVSS
VL: QIVLTQSPAIMSASLGERVTMTCTASSSVSSSFLHWYQQKPGSSPQLWIYSTSNLASGVPARFSGSGSGTSYSLTISSMEAEDAATYYCHQYHHSPYIYTFGGGTKLEIK
Regarding B6, the OD450 nm is 0.537 and 0.521; the Ratio OD(Variant)/OD(WT) is 1.06 and 1.03.

B7: KB001 mouse Fab VH V34I (Fab, V domains shown)
VH: EVQLKQSGPGLVAPSQSLSITCTVSGFSLSIYSIHWVRQPPGKGLEWLGMIWGGGSSDYNSALKSRLSISKDNSKSQVFLKMNSLQTDDTAMYYCARNGNFYAMDYWGQGTSVTVSS
VL: QIVLTQSPAIMSASLGERVTMTCTASSSVSSSFLHWYQQKPGSSPQLWIYSTSNLASGVPARFSGSGSGTSYSLTISSMEAEDAATYYCHQYHHSPYIYTFGGGTKLEIK
For B7, the OD450 nm was 0.891 and 0.868 and 0.866; the Ratio OD(Variant)/OD(WT) was 1.08 and 1.05 (2×).

B8: KB001 mouse Fab VL L55K (Fab, V domains shown)
VH: EVQLKQSGPGLVAPSQSLSITCTVSGFSLSIYSVHWVRQPPGKGLEWLGMIWGGGSSDYNSALKSRLSISKDNSKSQVFLKMNSLQTDDTAMYYCARNGNFYAMDYWGQGTSVTVSS
VL: QIVLTQSPAIMSASLGERVTMTCTASSSVSSSFLHWYQQKPGSSPQLWIYSTSNKASGVPARFSGSGSGTSYSLTISSMEAEDAATYYCHQYHHSPYIYTFGGGTKLEIK
B8: the OD450 nm came to 0.769 and the Ratio OD(Variant)/OD(WT) came out at 0.981.

B9: KB001 mouse Fab VH S30N (Fab, V domains shown)
VH: EVQLKQSGPGLVAPSQSLSITCTVSGFSLNIYSVHWVRQPPGKGLEWLGMIWGGGSSDYNSALKSRLSISKDNSKSQVFLKMNSLQTDDTAMYYCARNGNFYAMDYWGQGTSVTVSS
VL: QIVLTQSPAIMSASLGERVTMTCTASSSVSSSFLHWYQQKPGSSPQLWIYSTSNLASGVPARFSGSGSGTSYSLTISSMEAEDAATYYCHQYHHSPYIYTFGGGTKLEIK
B9: the OD450 nm was 0.565 and 0.56; the Ratio OD(Variant)/OD(WT) was 1.12 and 1.11.

B10: KB001 mouse Fab VH S30G (Fab, V domains shown)
VH: EVQLKQSGPGLVAPSQSLSITCTVSGFSLGIYSVHWVRQPPGKGLEWLGMIWGGGSSDYNSALKSRLSISKDNSKSQVFLKMNSLQTDDTAMYYCARNGNFYAMDYWGQGTSVTVSS
VL: QIVLTQSPAIMSASLGERVTMTCTASSSVSSSFLHWYQQKPGSSPQLWIYSTSNLASGVPARFSGSGSGTSYSLTISSMEAEDAATYYCHQYHHSPYIYTFGGGTKLEIK
On to B10, for which the OD450 nm was 0.533 and 0.515; the Ratio OD(Variant)/OD(WT) is 1.06 and 1.02.

B11: KB001 mouse Fab VH S30A (Fab, V domains shown)
VH: EVQLKQSGPGLVAPSQSLSITCTVSGFSLAIYSVHWVRQPPGKGLEWLGMIWGGGSSDYNSALKSRLSISKDNSKSQVFLKMNSLQTDDTAMYYCARNGNFYAMDYWGQGTSVTVSS
VL: QIVLTQSPAIMSASLGERVTMTCTASSSVSSSFLHWYQQKPGSSPQLWIYSTSNLASGVPARFSGSGSGTSYSLTISSMEAEDAATYYCHQYHHSPYIYTFGGGTKLEIK
Turning to B11, the OD450 nm is 0.534 and 0.499 and 0.494; the Ratio OD(Variant)/OD(WT) was 1.06 and 0.989 and 0.979.

B12: KB001 mouse Fab VH S30Y (Fab, V domains shown)
VH: EVQLKQSGPGLVAPSQSLSITCTVSGFSLYIYSVHWVRQPPGKGLEWLGMIWGGGSSDYNSALKSRLSISKDNSKSQVFLKMNSLQTDDTAMYYCARNGNFYAMDYWGQGTSVTVSS
VL: QIVLTQSPAIMSASLGERVTMTCTASSSVSSSFLHWYQQKPGSSPQLWIYSTSNLASGVPARFSGSGSGTSYSLTISSMEAEDAATYYCHQYHHSPYIYTFGGGTKLEIK
For B12, the OD450 nm is 0.53 and 0.488; the Ratio OD(Variant)/OD(WT) was 1.05 and 0.967.

B13: KB001 mouse Fab VH S28E (Fab, V domains shown)
VH: EVQLKQSGPGLVAPSQSLSITCTVSGFELSIYSVHWVRQPPGKGLEWLGMIWGGGSSDYNSALKSRLSISKDNSKSQVFLKMNSLQTDDTAMYYCARNGNFYAMDYWGQGTSVTVSS
VL: QIVLTQSPAIMSASLGERVTMTCTASSSVSSSFLHWYQQKPGSSPQLWIYSTSNLASGVPARFSGSGSGTSYSLTISSMEAEDAATYYCHQYHHSPYIYTFGGGTKLEIK
With B13, the OD450 nm is 0.561 and 0.551 and 0.494; the Ratio OD(Variant)/OD(WT) is 1.04 and 1.02 and 0.915.

B14: KB001 mouse Fab VH S56A (Fab, V domains shown)
VH: EVQLKQSGPGLVAPSQSLSITCTVSGFSLSIYSVHWVRQPPGKGLEWLGMIWGGGASDYNSALKSRLSISKDNSKSQVFLKMNSLQTDDTAMYYCARNGNFYAMDYWGQGTSVTVSS
VL: QIVLTQSPAIMSASLGERVTMTCTASSSVSSSFLHWYQQKPGSSPQLWIYSTSNLASGVPARFSGSGSGTSYSLTISSMEAEDAATYYCHQYHHSPYIYTFGGGTKLEIK
Regarding B14, the OD450 nm is 0.891 and 0.86 and 0.82; the Ratio OD(Variant)/OD(WT) was 1.01 and 0.978 and 0.932.

B15: KB001 mouse Fab VH I31M (Fab, V domains shown)
VH: EVQLKQSGPGLVAPSQSLSITCTVSGFSLSMYSVHWVRQPPGKGLEWLGMIWGGGSSDYNSALKSRLSISKDNSKSQVFLKMNSLQTDDTAMYYCARNGNFYAMDYWGQGTSVTVSS
VL: QIVLTQSPAIMSASLGERVTMTCTASSSVSSSFLHWYQQKPGSSPQLWIYSTSNLASGVPARFSGSGSGTSYSLTISSMEAEDAATYYCHQYHHSPYIYTFGGGTKLEIK
B15: the OD450 nm was found to be 0.522 and the Ratio OD(Variant)/OD(WT) was 1.03.

B16: KB001 mouse Fab VL L55V (Fab, V domains shown)
VH: EVQLKQSGPGLVAPSQSLSITCTVSGFSLSIYSVHWVRQPPGKGLEWLGMIWGGGSSDYNSALKSRLSISKDNSKSQVFLKMNSLQTDDTAMYYCARNGNFYAMDYWGQGTSVTVSS
VL: QIVLTQSPAIMSASLGERVTMTCTASSSVSSSFLHWYQQKPGSSPQLWIYSTSNVASGVPARFSGSGSGTSYSLTISSMEAEDAATYYCHQYHHSPYIYTFGGGTKLEIK
For the molecule B16, the OD450 nm stood at 0.706 and the Ratio OD(Variant)/OD(WT) was 0.901.

B17: KB001 mouse Fab VH I31T (Fab, V domains shown)
VH: EVQLKQSGPGLVAPSQSLSITCTVSGFSLSTYSVHWVRQPPGKGLEWLGMIWGGGSSDYNSALKSRLSISKDNSKSQVFLKMNSLQTDDTAMYYCARNGNFYAMDYWGQGTSVTVSS
VL: QIVLTQSPAIMSASLGERVTMTCTASSSVSSSFLHWYQQKPGSSPQLWIYSTSNLASGVPARFSGSGSGTSYSLTISSMEAEDAATYYCHQYHHSPYIYTFGGGTKLEIK
Take B17: the OD450 nm was 0.56 and 0.534; the Ratio OD(Variant)/OD(WT) was 1.11 and 1.06.

B18: KB001 mouse Fab VH S28P (Fab, V domains shown)
VH: EVQLKQSGPGLVAPSQSLSITCTVSGFPLSIYSVHWVRQPPGKGLEWLGMIWGGGSSDYNSALKSRLSISKDNSKSQVFLKMNSLQTDDTAMYYCARNGNFYAMDYWGQGTSVTVSS
VL: QIVLTQSPAIMSASLGERVTMTCTASSSVSSSFLHWYQQKPGSSPQLWIYSTSNLASGVPARFSGSGSGTSYSLTISSMEAEDAATYYCHQYHHSPYIYTFGGGTKLEIK
In the case of B18, the OD450 nm was 0.545 and 0.452 and 0.514; the Ratio OD(Variant)/OD(WT) is 1.01 and 0.837 and 0.952.

B19: KB001 mouse Fab VL L55T (Fab, V domains shown)
VH: EVQLKQSGPGLVAPSQSLSITCTVSGFSLSIYSVHWVRQPPGKGLEWLGMIWGGGSSDYNSALKSRLSISKDNSKSQVFLKMNSLQTDDTAMYYCARNGNFYAMDYWGQGTSVTVSS
VL: QIVLTQSPAIMSASLGERVTMTCTASSSVSSSFLHWYQQKPGSSPQLWIYSTSNTASGVPARFSGSGSGTSYSLTISSMEAEDAATYYCHQYHHSPYIYTFGGGTKLEIK
B19: the OD450 nm was 0.727 and the Ratio OD(Variant)/OD(WT) is 0.928.
